Assay results from US12104181B2, “Compositions and methods for treating viral infections targeting TRIM7” (THE BOARD OF REGENTS OF THE UNIVERSITY OF TEXAS SYSTEM, priority 2021, dated 2024).

B1: TRIM34: human RING type E3 ligase expressed from lentiviral vector (protein, UniProt Q9BYJ4 1-488, looked up)
E3 ubiquitin-protein ligase …: MASKILLNVQEEVTCPICLELLTEPLSLDCGHSLCRACITVSNKEAVTSMGGKSSCPVCGISYSFEHLQANQHLANIVERLKEVKLSPDNGKKRDLCDHHGEKLLLFCKEDRKVICWLCERSQEHRGHHTVLTEEVFKECQEKLQAVLKRLKKEEEEAEKLEADIREEKTSWKYQVQTERQRIQTEFDQLRSILNNEEQRELQRLEEEEKKTLDKFAEAEDELVQQKQLVRELISDVECRSQWSTMELLQDMSGIMKWSEIWRLKKPKMVSKKLKTVFHAPDLSRMLQMFRELTAVRCYWVDVTLNSVNLNLNLVLSEDQRQVISVPIWPFQCYNYGVLGSQYFSSGKHYWEVDVSKKTAWILGVYCRTYSRHMKYVVRRCANRQNLYTKYRPLFGYWVIGLQNKCKYGVFEESLSSDPEVLTLSMAVPPCRVGVFLDYEAGIVSFFNVTSHGSLIYKFSKCCFSQPVYPYFNPWNCPAPMTLCPPSS
B2: RNF41: human RING type E3 ligase expressed from lentiviral vector (protein, UniProt Q9H4P4 1-317, looked up)
E3 ubiquitin-protein ligase …: MGYDVTRFQGDVDEDLICPICSGVLEEPVQAPHCEHAFCNACITQWFSQQQTCPVDRSVVTVAHLRPVPRIMRNMLSKLQIACDNAVFGCSAVVRLDNLMSHLSDCEHNPKRPVTCEQGCGLEMPKDELPNHNCIKHLRSVVQQQQTRIAELEKTSAEHKHQLAEQKRDIQLLKAYMRAIRSVNPNLQNLEETIEYNEILEWVNSLQPARVTRWGGMISTPDAVLQAVIKRSLVESGCPASIVNELIENAHERSWPQGLATLETRQMNRRYYENYVAKRIPGKQAVVVMACENQHMGDDMVQEPGLVMIFAHGVEEI
modifications: lentiviral expression
notes: human RING type E3 ligase expressed from lentiviral vector
B3: TRIM33: human RING type E3 ligase expressed from lentiviral vector (protein, UniProt Q9UPN9 1-1127, looked up)
E3 ubiquitin-protein ligase …: MAENKGGGEAESGGGGSGSAPVTAGAAGPAAQEAEPPLTAVLVEEEEEEGGRAGAEGGAAGPDDGGVAAASSGSAQAASSPAASVGTGVAGGAVSTPAPAPASAPAPGPSAGPPPGPPASLLDTCAVCQQSLQSRREAEPKLLPCLHSFCLRCLPEPERQLSVPIPGGSNGDIQQVGVIRCPVCRQECRQIDLVDNYFVKDTSEAPSSSDEKSEQVCTSCEDNASAVGFCVECGEWLCKTCIEAHQRVKFTKDHLIRKKEDVSESVGASGQRPVFCPVHKQEQLKLFCETCDRLTCRDCQLLEHKEHRYQFLEEAFQNQKGAIENLLAKLLEKKNYVHFAATQVQNRIKEVNETNKRVEQEIKVAIFTLINEINKKGKSLLQQLENVTKERQMKLLQQQNDITGLSRQVKHVMNFTNWAIASGSSTALLYSKRLITFQLRHILKARCDPVPAANGAIRFHCDPTFWAKNVVNLGNLVIESKPAPGYTPNVVVGQVPPGTNHISKTPGQINLAQLRLQHMQQQVYAQKHQQLQQMRMQQPPAPVPTTTTTTQQHPRQAAPQMLQQQPPRLISVQTMQRGNMNCGAFQAHQMRLAQNAARIPGIPRHSGPQYSMMQPHLQRQHSNPGHAGPFPVVSVHNTTINPTSPTTATMANANRGPTSPSVTAIELIPSVTNPENLPSLPDIPPIQLEDAGSSSLDNLLSRYISGSHLPPQPTSTMNPSPGPSALSPGSSGLSNSHTPVRPPSTSSTGSRGSCGSSGRTAEKTSLSFKSDQVKVKQEPGTEDEICSFSGGVKQEKTEDGRRSACMLSSPESSLTPPLSTNLHLESELDALASLENHVKIEPADMNESCKQSGLSSLVNGKSPIRSLMHRSARIGGDGNNKDDDPNEDWCAVCQNGGDLLCCEKCPKVFHLTCHVPTLLSFPSGDWICTFCRDIGKPEVEYDCDNLQHSKKGKTAQGLSPVDQRKCERLLLYLYCHELSIEFQEPVPASIPNYYKIIKKPMDLSTVKKKLQKKHSQHYQIPDDFVADVRLIFKNCERFNEMMKVVQVYADTQEINLKADSEVAQAGKAVALYFEDKLTEIYSDRTFAPLPEFEQEEDDGEVTEDSDEDFIQPRRKRLKSDERPVHIK

Tested on: coxsackievirus B3 (CVB3-GFP)
Assay type: cell-based
Conditions: HeLa cells, replicate R1; for Percent Infected R1: GFP-positive cells within RFP-positive gate

Molecule | Percent Infected R1 | Z score R1
B1 | 62.2% | −0.336
B2 | 93.5% | 0.06
B3 | 55.3% | −0.424
